Tested on: MS2 coat protein
Test: apparent KD of MS2 coat protein; designed switch direction (-1 OFF switch, 1 ON switch): -1; higher = weaker reporter binding
In short: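 Designed RNA switches with common flanks were transcribed on Illumina chips by stalled E. coli RNA polymerase and titrated with SNAP-549-labelled MS2 coat protein, from 0.7 or 1.5 nM doubling to 3 µM, in Tris-HCl pH 7.5 buffer with KCl, MgCl2, BSA, DTT, tRNA and Tween-20. Steps lasted 0.8–1.5 h (lowest) to 10–20 min (highest). Titrations ran without input, with 200 uM small-molecule ligand, or with an oligonucleotide input. Normalised cluster fluorescence was curve-fitted, and apparent KD is the per-design median over clusters.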

[1] = input ligand: microRNA oligo, concentration not stated
[2] = Eterna round: R95, input ligand: microRNA oligo, concentration not stated
[3] = Eterna round: R95, input ligand: FMN 200 uM
[4] = Eterna round: R95, input ligand: none

Sequence	apparent KD of MS2 coat protein (input ligand: FMN 200 uM)	apparent KD of MS2 coat protein [1]	apparent KD of MS2 coat protein (input ligand: none)	apparent KD of MS2 coat protein [2]	apparent KD of MS2 coat protein [3]	apparent KD of MS2 coat protein [4]
AUAAAUCAUGUAGGAUAUGCGUGGCAAAGCUAUGCAGAAGGACAUGAGGAUCACCCAUGUGCUUCCGUCUGAGAACAGACGGUA [Mat - Exclusion NG 1 - Mod of JL - D24] (Eterna round: R96, puzzle: Exclusion NG 1)	130 nM	61.6 nM	82.3 nM			
GCACUGGCAGGAUAUACAUGAGGAUCACCCAUGUGAUCCCUUAGGUACAAAAGUACCAGUAGAAGGGCCUGUGC [Omei Ex3 Model Bachelor's Dilema v50] (Eterna round: R97, puzzle: Exclusion 3)	315 nM		564 nM			
GAAAACCGGUGAGGAUAUUUAUAAUAGAGCUUUAUGAUAUACAUGAGGAUCACCCAUGUUACUUUAAAGAAGGCAUCGGAAAAG [Mat - Exclusion NG 2 - Mod of JL - D94] (Eterna round: R96, puzzle: Exclusion NG 2)	19.1 nM	12.5 nM	18.9 nM			
CUGUACAUAGGAUAUAGUUGUUUUUACAUGAGGAUCACCCAUGUUACUCCUCUCUCUCUUCUAGAAGGAUGUUUCU [JR_E5_Sub008] (puzzle: Exclusion 5)				63.8 nM		
GAUUAUGCGAGCUUUAGGGACAUGAGGAUCACCCAUGUUCGUCUUAUUGGUCUGGAUACACUAACAUACCUAAAUCU [JMF 14] (puzzle: Sensor v3, turn-off variant 1)				27.9 nM	19.2 nM	21.2 nM
CUUUUGUGAGGAUAUCAGUAGUAAUAAAAUAAAAUAACUACUGAGAAGGCACAUGAGGAUCACCCAUGUUCCUC [Mat - Exclusion 4 - Mod of Salish - D72] (puzzle: Exclusion 4)				30 nM		
AGCAUGCUAGGAUAUACGGGACAUUAGGGUUCGUUGUAUGGACAUGAGGAUCACCCAUGUAGAAGGAGCGUGCA [Mat - Exclusion 2 - Mod of Hyphema - D94] (puzzle: Exclusion 2)				23.5 nM		
AGUGUGUCAGGAUAUUCUAUUAAUUACAUGAGGAUCACCCAUGUGAAUGGACAAGGGUGUGAAGAAGGGACGUGCG [Omei Ex5 A17e] (Eterna round: R97, puzzle: Exclusion 5)	211 nM		381 nM			
CUGAUGUGAGGAUAUCGGGCUACGGCCAGGCCGCUAGCAUUCGAGAAGGCACAUGAGGAUCACCCAUGUGAGAA [Laquzara] (Eterna round: R96, puzzle: Exclusion 4)	230 nM	112 nM	153 nM			
AUCCGGCAUGUAGGAUAUGGAUCCGAUUAGGAUCCAGAAGGACAUGAGGAUCACCCAUGUACAUGUAAACAGUCAUCACCGGAC [salish99_ExNG1_r04_201] (Eterna round: R96, puzzle: Exclusion NG 1)	462 nM	50.2 nM	67.3 nM			
GCACGGAUUGUAGGAUAUCUGUGCGAUUAGCUCAGAGAAGGACACAUGAGGAUCACCCAUGUUACCUCAAUUGGCCUUCCGUGC [Eli exng1 - 031] (Eterna round: R96, puzzle: Exclusion NG 1)	128 nM	70.7 nM	116 nM			
GGCCUUCCGCGAGCUUUUUACAUGAGGAUCACCCAUGUGGUUUUUAGUCUUAUGCCCGGGCCCGUGUGGGCCCGGGC [-33.7, -54.7, A 12%] (Eterna round: R97, puzzle: Sensor, turn-off variant 1)	27.6 nM		29.2 nM			
UUCCAGACAGGAUAUCUAGUGAGCAACAUGAGGAUCACCCAUGUGACCAUCACCGCCCGCAGAGAAGGGUCAACAG [Inbilaus] (puzzle: Exclusion 5)				41.1 nM	55.4 nM	40.2 nM
GACUGCUGAGGAUAUACAUGAGGAUCACCCAUGUGCUUCAGCUACGAAAGUAGCAUUGGUAGAAGGUAGUAGUC [LRO-Excl3-05] (puzzle: Exclusion 3)				11.5 nM		
GAUUUACAUGAGGAUCACCCAUGUGAGGAUAUAUUGUUAUUUUUAAUAUUUUUUAGUGGUAGAAGGCGCGUGAU [JR_Exc1_Sub016] (Eterna round: R97, puzzle: Exclusion 1)	24.2 nM		26.9 nM			
AAUUAGUGAGGAUAUUUGAACAGUGGCAGUAGCCAGUGCAUGAAGAAGGCACAUGAGGAUCACCCAUGUUAUAA [EX4 #58] (Eterna round: R97, puzzle: Exclusion 4)	70.5 nM		39.8 nM			
AGAAAGGAAGGAUAUACAAGAAAGCCGGGCAACGUCUCAGAACAUGAGGAUCACCCAUGUAGAAGGUCCAGGAA [Tisoiste] (puzzle: Exclusion 2)				32.6 nM	92.3 nM	32.8 nM

Sequence	apparent KD of MS2 coat protein (input ligand: FMN 200 uM)	apparent KD of MS2 coat protein [1]	apparent KD of MS2 coat protein (input ligand: none)	apparent KD of MS2 coat protein [2]	apparent KD of MS2 coat protein [3]	apparent KD of MS2 coat protein [4]
AUAGCUCGUGUUAGGAUAUCCGCAUAUUUUACAUAGGAGAAGGAACAUGAGGAUCACCCAUGUAAUAGAAAAGA [Maenri] (puzzle: Brourd's mod of Exclusion 4)				101 nM	138 nM	74.7 nM
UCUCCACAUGAGGAUCACCCAUGUCAGGAUAUGCUGCGGCUACUAAAAGAGAAUUGCGGCAGAAGGGACACGCC [EX1 B.25] (Eterna round: R97, puzzle: Exclusion 1)	68 nM		20.2 nM			
CCAGCGGACAAAGGAUAUUGCGGUGACCGGCUCGGCGUACCGAGCCUACAUGAGGAUCACCCAUGUAAGAAGGUUGUCGUAGGA [Mat - Exclusion NG 2 - Mod of JL - D73] (Eterna round: R96, puzzle: Exclusion NG 2)	56.1 nM	13.2 nM	19.5 nM			
UGGGUUCUCCAUAGAAGUAACAUGAGGAUCACCCAUGUAGGGCAAGUUUUUUGCUCGUCAUAGGUUGUGGGUUUGGA [JR_SV3TOV1_Sub018] (puzzle: Sensor v3, turn-off variant 1)				491 nM	578 nM	660 nM
GUACAUUUAGGAUAUACGGCAGCCAAUGCAAGGGUUCUAUAACAUGAGGAUCACCCAUGUAGAAGGAGAGGGCG [Eternabot (L2) Solution 21] (Eterna round: R97, puzzle: Exclusion 2)	70.8 nM		55.2 nM			
ACUUAUCAUGUAGGAUAUGCGUGGCGAAGCUAUGCAGAAGGACAUGAGGAUCACCCAUGUUUUAGCGUCUGCGUACAGAUGCGU [JL ENG1 1.45] (Eterna round: R96, puzzle: Exclusion NG 1)		39 nM				
CUGAGCAGACGGAGAUCCAACAUGAGGAUCACCCAUGUCUCAAAAGCUUUUUGCUUGUCUUAUUCUCCUCUGUUCAC [Enradibe] (puzzle: Sensor v3, turn-off variant 1)				31.6 nM	13.2 nM	11.2 nM
GUAAACGAAGAGGAUAUUUGAUAUCAUAGCUUCAAAGAAGGCUUCACAUGAGGAUCACCCAUGUGAUCUUCAAG [Mat - Exclusion 6 - JL Mod - D21] (Eterna round: R97, puzzle: Exclusion 6)	199 nM		34.8 nM			
GGCACACAUGUAGGAUAUCUGCACGAUUAGUGCAGAGAAGGACAUGAGGAUCACCCAUGUAAUUAAGAUCAAUUAUUAAGUGCC [ENG1/3-A1] (Eterna round: R96, puzzle: Exclusion NG 1)	468 nM	50 nM	54.6 nM			
CGUCCUGUAGUGAGGAUAUUGUCUCGGAUACGAAACAAGAAGGCACAUGAGGAUCACCCAUGUAAUCAGGACGA [Malc #30 mod 12] (puzzle: Brourd's mod of Exclusion 4)				16.1 nM	14.1 nM	13.3 nM
GGCAAAGUAGGAUAUACAUGAGGAUCACCCAUGUUUCCAGAUGGCGUAGGUCUUCUUUGUAGAAGGGCUAUGCC [Ananinge] (Eterna round: R97, puzzle: Exclusion 3)	20.1 nM		15.2 nM			
GGUGGGCUAGGAUAUGCUUUGGGUGGGCAUUCCUUCGAUAAACUUGAGGAUCACCCAAGUAGAAGGAGCUUGCC [salish99_ex2_r4_023] (Eterna round: R97, puzzle: Exclusion 2)	21.8 nM		35.4 nM			
GCCUCACUUGAGGAUCACCCAAGUCAGGAUAUUUGAAAGCAAGCCUAAAACACGCGUAAAAGAAGGGACUUGAA [Armare] (Eterna round: R97, puzzle: Exclusion 1)	30.3 nM		20.9 nM			
GUACUAGAAUAUCAGUCGCACAUGAGGAUCACCCAUGUCAUGGGUAGAUCAAUAAAUAAAGAUACUGCUCGUCUUAU [Cac sensor turnoff var1 sub2] (Eterna round: R97, puzzle: Sensor, turn-off variant 1)	496 nM		378 nM			
GAAAACGCAGAGGAUAUAUCAGAUCAAAGCUGCAUAGAAGGCUGCACAUGAGGAUCACCCAUGUGGUCUUCAAU [Mat - Exclusion 6 - JL Mod - D5] (Eterna round: R97, puzzle: Exclusion 6)	282 nM		23.8 nM			
AGGAUACGAGGAUAUACGCGGAGACCUCAGGGUCUACAAACACAUGAGGAUCACCCAUGUAGAAGGCGUACCAG [Eternabot (Original) Solution 11] (Eterna round: R97, puzzle: Exclusion 2)	394 nM		42 nM			
GCUGCAAGAGGAUAUACAUGAGGAUCACCCAUGUGAAAUUAUAGUGAGGAAAUGAAAAGUAGAAGGCUUGUAGA [Mod of Mat 15 - Jieux - Exclusion 3] (Eterna round: R97, puzzle: Exclusion 3)	86.6 nM		38.1 nM			

— the supplement of paper PMC9170038
